Among the data in paper PMC10992437, “Engineering a norcoclaurine synthase for one-step synthesis of (S)-1-aryl-tetrahydroisoquinolines” (Bioresources and Bioprocessing, 2023) are Km values, retold here.

Data set [1] relates to O=Cc1ccc(-c2ccccc2)cc1. Nature of the data set: purified protein. To be noted: co-substrate dopamine (concentration not stated), aldehyde 0.5-50 mM, general assay: HEPES pH 7.5, 20% DMSO, 5 mM ascorbic acid. Type of data set: biochemical, Thalictrum flavum.
Data set [2] relates to O=Cc1ccccc1. The experiment in a line: purified protein. To be noted: co-substrate dopamine (concentration not stated), aldehyde 0.5-50 mM, general assay: HEPES pH 7.5, 20% DMSO, 5 mM ascorbic acid. The format is biochemical, Thalictrum flavum.

For the substance “TfNCS (norcoclaurine synthase) (Thalictrum flavum subsp. glaucum; L68T/M97V)”, the Km (usually the substrate concentration at which the rate is half of its maximum) in data set [1] amounted to 14.6 ± 5.1 mM; in data set [2], 20.1 ± 5.3 mM.

As to “TfNCS (norcoclaurine synthase) (Thalictrum flavum subsp. glaucum)”, the Km in data set [1] came to 15.0 ± 4.6 mM; in data set [2], 22.3 ± 6.7 mM.
